This note sets out measurements from the supplement of paper PMC12042874.

± gives the uncertainty stated by the source.

The data set is described as follows: amyloid nucleation score (Sup35N fusion, yeast selection) (log enrichment); library NNK2; higher = more nucleation; inactive = no reads after selection. The essentials: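 Nucleation score is defined as the DiMSum log enrichment of output over input reads, with centring on the mode score of non-aggregating sequences. A minimum of 100 input reads was required for each sequence. Reads came from Illumina sequencing of plasmid inserts from psi-negative yeast expressing Sup35N fused to peptides of 20 random codons, induced with 100 μM copper sulfate for 24 hours and grown 7 days at 30°C on medium lacking adenine and uracil.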
For the substance DSVIGSLCPNCYGWRISKVM, the amyloid nucleation score is 0.081 ± 1.1. Next, DSVIRRNKNTSTL: -0.275 ± 0.25; DSVVLGGYGGFAAHKTRVIF: 0.213 ± 0.43; DSWLFGDINRCFWLVKCYHR: 2.69 ± 0.075. As to DTAHTNISECRAMVRMYRSR, the amyloid nucleation score is -0.755 ± 1.1. The value for DTIILC was “inactive”. Next, DTLLSMAKRCLDSVFLGFPR: -0.134 ± 0.55. The value for DTLVHMLRYFGGTQPWYM was -0.183 ± 0.53; that for DTMKFFSSLSMNGENVGLGY was “inactive”; that for DTSIW was 0.114 ± 0.29.

DTWVLDIMYFSLRYWVFVSV registered an amyloid nucleation score of 0.228 ± 1. The value for DVAYRVVDKRIQRVAKCMYM was -0.194 ± 0.6. DVFVDMGMLTPKRCRARRGV gave an amyloid nucleation score of 0.883 ± 0.34. The value for DVIVRLFVPYLVV was -0.199 ± 0.44; that for DVKSAWRLGVGCLTVRAIRE was 0.233 ± 0.49; that for DVLVSILITPRCHHA was “inactive”. Substance DVQHFIWCCNATVTYPLLVL displayed an amyloid nucleation score of 1.27 ± 0.22.

Regarding DVSGISDARMGKPSQWYGWY, the amyloid nucleation score is 0.182 ± 0.38. Next, DVVKSVPQTPL: 0.851 ± 0.28; DWCYYGG: “inactive”. The value for DWPRLLNFWRY was -0.284 ± 1.1. Next, DWTTAFSTF: -0.012 ± 0.41; DWVFMRKCSPCWWYYIHLMS: -0.468 ± 0.64; DWWERGRVGSGCQSLGVTLH: 0.923 ± 0.81. DWWSDDSRLGNLLRFSKRSF came in with an amyloid nucleation score of -0.636 ± 0.76. DYCMFFGVTRISSLH: the amyloid nucleation score is 3.95 ± 0.073. Regarding DYFFPWENSGCIRRSLTVG, the amyloid nucleation score was -1.35 ± 0.41. DYGLVCY yielded an amyloid nucleation score of 0.277 ± 0.22. As to DYLSIFDYHDMMGQNFL, the amyloid nucleation score is -0.151 ± 0.49. Next, DYMTGV: “inactive”.

DYPSKKGVVPPRLGISDKNV had an amyloid nucleation score of 2.86 ± 0.049.

Substance DYRMVYSCCMLGREGWRNTW had an amyloid nucleation score of 5.606 ± 0.035.

Substance ECFTMSRK came in with an amyloid nucleation score of -1.28 ± 0.37. Next, ECGDRIL: 0.536 ± 0.42. Next, ECHANASFFLCRGAERSACG: 0.783 ± 0.58. Next, ECLTG: -1.04 ± 0.44; ECMAWGIFCGGSSGIFCLNQ: “inactive”. ECSFVMKY: the amyloid nucleation score was 3.41 ± 0.074. EDHSGF: the amyloid nucleation score was -1.15 ± 0.28.

Substance EDIGSVMGVSRAFCWQRAIC came in with an amyloid nucleation score of -0.666 ± 0.79.

EDLWWVQLSNLKDSVDEYCR: the amyloid nucleation score worked out at 0.007 ± 0.21. Regarding EDSPPFWGVVWPFTRNNDRK, the amyloid nucleation score came to 1.11 ± 0.52.

For the substance EDVDICRHFYRGVVNNGYQR, the amyloid nucleation score is 0.328 ± 0.57. In turn, EELKYYSISVMLRGRHALLI displayed an amyloid nucleation score of -0.894 ± 0.56. Next, EEREFSAASPEAMELR: “inactive”. EESGGYC registered an amyloid nucleation score of -0.893 ± 0.25. Substance EESYLSHGL returned an amyloid nucleation score of 1.22 ± 0.61. The value for EETVLIFLCYMAGRDLYKVN was 3.21 ± 0.096; that for EEYFDWSMKCKLIYINRVPL was -0.358 ± 1; that for EFDDYSFICRILSALFES was -0.153 ± 1.1. In the case of EFIDLVD, the amyloid nucleation score result is “inactive”. Next, EFLRNGLFKEVAS: 0.202 ± 0.64; EFRWGFRGVSYLKCTC: 1.2 ± 0.15; EFVLKSLTNLTEIKYAVSLE: 2.09 ± 0.099. As for EGDMLILEF, the amyloid nucleation score was -0.474 ± 1.

On to EGFLRIVKVVTTIWWTGLFC, for which the amyloid nucleation score is -1.23 ± 1. With EGIILFRKDRELTGGRLTNV, the amyloid nucleation score is -0.145 ± 1.1. Turning to EGYAGVVQMALFYSWANIRL, the amyloid nucleation score stood at 0.194 ± 0.62.

With EHLCPYF, the amyloid nucleation score is 0.667 ± 0.46. In the case of EHVFMSAHFLLNSQRKKN, the amyloid nucleation score is -1.9 ± 0.75. On to EICLHLQAYAIKQCGLLGTP, for which the amyloid nucleation score was determined as 0.407 ± 0.26.

EIWMSLSLNAEISYVYYSQS registered an amyloid nucleation score of -0.658 ± 0.28. Consider EKAGGPWLDHNRRQCQCEVA, for which the amyloid nucleation score amounted to 0.634 ± 0.45. The substance EKGNVGSQANTLVRCSGLTW displayed an amyloid nucleation score of 1.17 ± 0.21. In the case of EKICRWHTDRGAFN, the amyloid nucleation score entry was “inactive”. The value for EKTFRFADYLMCPASSRSSV was -0.082 ± 0.4.

For EKVSFASFMS, the amyloid nucleation score is -1.31 ± 0.78. Next, ELFQIAVTRTKFLLVQSSYS: 1.27 ± 0.18; ELLGG: -0.343 ± 1.1. ELMVTVVDHCTFVVTRLCGE: the amyloid nucleation score came out at 7.184 ± 0.064.

As for ELNLNS, the amyloid nucleation score is 0.695 ± 0.36. The value for ELNMRAYRKMSKGSYSKNSG was -0.462 ± 0.76; that for ELRSLAGIVSWLSLRYPPTE was 2.42 ± 0.23; that for ELSRAGYEWCLGSHTSLVSS was 0.836 ± 0.32. Substance ELTTTTTYVRKVFCLYFS came in with an amyloid nucleation score of 8.422 ± 0.047. Take EMLFWVVGTMDVDWMPG: the amyloid nucleation score stood at 0.508 ± 0.57.

Consider EMLYTSFILSLWNNLDFILS, for which the amyloid nucleation score is -0.452 ± 0.63.

In turn, EMVIGMFKCTLISSIVLKTC came in with an amyloid nucleation score of 0.484 ± 0.23. Substance ENATFLATCI had an amyloid nucleation score of -0.217 ± 0.79. Next, ENCHFLGWANNGVLKCSFT: -0.153 ± 0.63; ENLSQQMFWFKYAKVWGNVH: -0.724 ± 0.39; EPNIGSVP: -0.171 ± 0.55.

As to EQYPNKPVRCEVRATATWGP, the amyloid nucleation score is 0.245 ± 0.27.

As for ERGSYLRESRYIVFFNLLIL, the amyloid nucleation score result is “inactive”.

As to ERNCISYHKGIFDNNEC, the amyloid nucleation score entry was “inactive”. Next, ERNSWISLIQTF: -0.693 ± 0.39; ERSIARSFRLAADFCSYSRR: “inactive”; ESDLVLGRVR: 0.69 ± 0.49. ESFARFIAM gave an amyloid nucleation score of -0.033 ± 0.55.

Take ESLMKSYVLSAYMCGPIGGR: the amyloid nucleation score amounted to 1.03 ± 0.37.

The substance ESSFLLNHHT showed an amyloid nucleation score of -0.142 ± 0.79. ESTWSFNSLYIDLIKVWSDV: the amyloid nucleation score was -0.889 ± 0.76. The value for ETHVRMWAHFWQTTLRCHKS was 1.72 ± 0.16. For ETVFRLFFSYRGVANHVVPG, the amyloid nucleation score is -0.408 ± 0.63. Next, ETYLVFV: 0.072 ± 0.79; ETYWWRQRLNSRLAFNWH: 5.16 ± 0.098; EVDLRKSGLSGRVKFYLMLW: 0.839 ± 0.57.

Substance EVLRKQIVRTRAVQVHFCLT had an amyloid nucleation score of 1.15 ± 0.15.

EVLSRDRSSAPFAVLLAGSR showed an amyloid nucleation score of 0.129 ± 0.76. On to EVSNRCRRLSTRRVHSVLVG, for which the amyloid nucleation score stood at 1.13 ± 0.25. The substance EVSSGTCFGTS came in with an amyloid nucleation score of 0.084 ± 0.42. Next, EVTWDVLAIVLTLMKKA: 4.27 ± 0.083. With EVVAISNTASICLYSNYKH, the amyloid nucleation score came to 5.04 ± 0.1.

EWSRGLCTVQLA: the amyloid nucleation score amounted to 0.058 ± 0.65. In the case of EWVRWLVVLNLRSNAGNYDI, the amyloid nucleation score is -0.953 ± 0.54. Next, EYMTMDELDWWSRQCFGWAQ: 1.64 ± 0.42. The substance EYQLDHVY gave an amyloid nucleation score of -0.711 ± 1.1.

As for EYSNFVTNEYEWIVGPTWSS, the amyloid nucleation score came to 6.317 ± 0.026. EYTIFTDLLLYDFKWLEYVW came in with an amyloid nucleation score of 0.561 ± 0.62.

As for EYVADHGQIADGR, the amyloid nucleation score amounted to 0.782 ± 0.26. In the case of FAFKTLVWHRGVCRFPGARL, the amyloid nucleation score entry was “inactive”.

For FAIGR, the amyloid nucleation score was -0.077 ± 0.36. FARGMVRSSTGTM returned an amyloid nucleation score of -1.88 ± 0.44. Next, FASCRIVSRG: “inactive”; FAWGPFA: -0.557 ± 0.37; FCAYVAWLSSWNIQPAKGRG: 1.1 ± 0.35. In turn, FCFLKFCMLHRLLVFLWRQF yielded an amyloid nucleation score of 1.54 ± 0.11. Next, FCGQKTNFNCLDETLLIR: 1.09 ± 0.59; FCILSWGLSVRYSRVPLNYK: 1.14 ± 0.18; FCISFRTRSDPRSHSSGAIE: 0.498 ± 0.54. FCMADVYSGTLRNNYHTSEV showed an amyloid nucleation score of -0.986 ± 0.31.

For the substance FCNVKLLLVGWCRVSVKKGV, the amyloid nucleation score is 2.12 ± 0.28. Next, FCSGLYHVYAD: 2.28 ± 0.15. FCSHMLARTYLKCGREDR gave an amyloid nucleation score of -0.337 ± 1.

For the substance FCSSIVMVNSQCFVKSFSTK, the amyloid nucleation score stood at 6.311 ± 0.028. The value for FCVIAQYAQVPMSCWGWLES was -0.191 ± 1.1. Consider FCWFRLLEYFSR, for which the amyloid nucleation score was -0.201 ± 0.45. The value for FDAQNSWSWHRSWQNVFRKG was 1.54 ± 0.22; that for FDDLLEARYSFSVKVCY was -0.947 ± 0.35; that for FDILDCDNLELGLYIFILDL was -1.14 ± 1. Next, FDIPCSFVPVYHIKAFLCRM: -0.353 ± 0.79.

Turning to FDLNSTVWIRCGGLILRLKP, the amyloid nucleation score turned out to be 0.01 ± 0.25. Next, FDTGSRYFFNELRGGNCHCW: 1.26 ± 0.21; FDVSWMARVELSIM: -0.018 ± 0.33. The value for FDWISVRGTGWFCLRWWLYV was “inactive”; that for FEAYYWLADLNLLCYLGVRS was 3.79 ± 0.052. FEDIFCWVY came in with an amyloid nucleation score of -1.79 ± 0.76. The value for FEFVYFVRSIG was -0.129 ± 0.5; that for FEGFNAMVSGLRYSSMGCFH was 0.334 ± 0.25; that for FESFLTLYIIYTGAANNSWV was 4.01 ± 0.087.
